The values below come from publication PMC10698503, “Phosphatase specificity principles uncovered by MRBLE:Dephos and global substrate identification” (Molecular Systems Biology, 2023).

His-PP1γ, sequence (P36873 whole entry): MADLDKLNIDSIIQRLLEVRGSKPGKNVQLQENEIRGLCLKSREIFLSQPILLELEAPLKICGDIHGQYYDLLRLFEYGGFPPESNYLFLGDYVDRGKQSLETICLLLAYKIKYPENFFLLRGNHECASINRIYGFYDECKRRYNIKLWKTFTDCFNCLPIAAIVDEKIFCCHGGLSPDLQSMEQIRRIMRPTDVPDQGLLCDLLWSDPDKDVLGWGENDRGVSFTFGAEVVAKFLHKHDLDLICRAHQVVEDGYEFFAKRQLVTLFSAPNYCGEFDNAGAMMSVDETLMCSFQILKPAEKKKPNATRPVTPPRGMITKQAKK

The test has as its target His-PP1γ (UniProt P36873). Put plainly: ITC; peptide (approximately 450 µM, syringe) titrated into PP1γ (~35 µM, cell); 25°C; 50 mM sodium phosphate, 150 mM NaCl, 0.5 mM TCEP, pH 7.5; single-site model. In general terms: Isothermal titration calorimetry measures the heat released or taken up as one component is titrated into another.
Broadly, the Kd is the equilibrium constant for the complex coming apart. “KNL1 1441-1455 pS1448 peptide KLNSKRV(pS)FKLPKDQW” displayed a dissociation constant (Kd) of 1.73 µM. Regarding “Nipp1 197-209 pT202 peptide AKNSRV(pT)FSEDDEIW”, the Kd turned out to be 4.51 µM. The result for Sororin 76-96 pS79 peptide PRR(pS)… reads 7.24 µM; that for Sororin 76-96 pS83 peptide PRRSPRI(pS)…, 3.46 µM.
